B1: LINE1-mini (parent)
chain: GGCAGAGCUCAACACAGCGUGGCAAAGUGGCUGUGGCUAGACUGCC

Variants of B1 are the subject of the data set. The data set can be described thus: self-cleavage, relative activity (ratio to wild type); higher = more cleavage; in vitro, sequencing; the parent is a self-cleaving ribozyme.
In the case of GGCAGACCUCAACACAGAGUGGCAAAGUGGCUGUGGCUAGACUGCC, the self-cleavage turned out to be 0.12. With GGCAGACCUCAACACAGUGUGGCAAAGUGGCUGUGGCUAGACUGCC, the self-cleavage was 0.19. Regarding GGCAGACCUCAACACAGGGUGGCAAAGUGGCUGUGGCUAGACUGCC, the self-cleavage was determined as 0.09.

Regarding GGCAGACCUCAACACAACGUGGCAAAGUGGCUGUGGCUAGACUGCC, the self-cleavage amounted to 0.07. For GGCAGACCUCAACACACCGUGGCAAAGUGGCUGUGGCUAGACUGCC, the self-cleavage was 0.1. With GGCAGACCUCAACACAUCGUGGCAAAGUGGCUGUGGCUAGACUGCC, the self-cleavage was found to be 0.09. With GGCAGACCUCAACACAGCGUGGCAAAGUGGCUGUGGCUAGACUGCA, the self-cleavage came out at 0.18. With GGCAGACCUCAACACAGCGUGGCAAAGUGGCUGUGGCUAGACUGCU the figure was 0.08; with GGCAGACCUCAACACAGCGUGGCAAAGUGGCUGUGGCUAGACUGCG, 0.08. As for GGCAGACCUCAAGACAGCGUGGCAAAGUGGCUGUGGCUAGACUGCC, the figure is 0.18. GGCAGACCUCAAUACAGCGUGGCAAAGUGGCUGUGGCUAGACUGCC: the self-cleavage was 0.14. Regarding GGCAGACCUCAAAACAGCGUGGCAAAGUGGCUGUGGCUAGACUGCC, the self-cleavage is 0.11. Consider GGCAGACCUCAACACAGCGUGGCAAAGUGGCUGUGACUAGACUGCC, for which the self-cleavage worked out at 0.2.

Regarding GGCAGACCUCAACACAGCGUGGCAAAGUGGCUGUGCCUAGACUGCC, the self-cleavage is 0.1.

In the case of GGCAGACCUCAACACAGCGUGGCAAAGUGGCUGUGUCUAGACUGCC, the self-cleavage turned out to be 0.1. As to GGCAGACCUCAACACAGCGUGGCAAAGUGGCAGUGGCUAGACUGCC, the self-cleavage worked out at 0.05.

On to GGCAGACCUCAACACAGCGUGGCAAAGUGGCGGUGGCUAGACUGCC, for which the self-cleavage is 0.05.

GGCAGACCUCAACACAGCGUGGCAAAGUGGCCGUGGCUAGACUGCC: the self-cleavage was 0.07. On to GGCAGAUCUCUACACAGCGUGGCAAAGUGGCUGUGGCUAGACUGCC, for which the self-cleavage was 0.04. For GGCAGAUCUCCACACAGCGUGGCAAAGUGGCUGUGGCUAGACUGCC, the self-cleavage was 0.02. As for GGCAGAUCUCGACACAGCGUGGCAAAGUGGCUGUGGCUAGACUGCC, the figure is 0.03.

As for GGCAGACCUCAACACAGCUUGGCAAAGUGGCUGUGGCUAGACUGCC, the self-cleavage stood at 0.07. As for GGCAGACCUCAACACAGCAUGGCAAAGUGGCUGUGGCUAGACUGCC, the figure is 0.14.

For GGCAGACCUCAACACAGCCUGGCAAAGUGGCUGUGGCUAGACUGCC, the self-cleavage was 0.05.

For GGCAGACCUCAACACAGCGUGACAAAGUGGCUGUGGCUAGACUGCC, the self-cleavage is 0.11.

For the variant GGCAGACCUCAACACAGCGUGCCAAAGUGGCUGUGGCUAGACUGCC, the self-cleavage stood at 0.08.

For the variant GGCAGACCUCAACACAGCGUGUCAAAGUGGCUGUGGCUAGACUGCC, the self-cleavage is 0.12. Consider GGCAGACCUCAACACAGCGUGGCAAAGUGGCUGUGGCUAGACUGUC, for which the self-cleavage was 0.16. As for GGCAGACCUCAACACAGCGUGGCAAAGUGGCUGUGGCUAGACUGGC, the figure is 0.11; as for GGCAGACCUCAACACAGCGUGGCAAAGUGGCUGUGGCUAGACUGAC, 0.1; as for GGCAGAUCUCAACACAGCGUGGCAACGUGGCUGUGGCUAGACUGCC, 0.24. For the variant GGCAGAUCUCAACACAGCGUGGCAAGGUGGCUGUGGCUAGACUGCC, the self-cleavage turned out to be 0.05.

For GGCAGACCUCAACACAGCGUGGCAAAGUGGUUGUGGCUAGACUGCC, the self-cleavage is 0.05.

On to GGCAGACCUCAACACAGCGUGGCAAAGUGGAUGUGGCUAGACUGCC, for which the self-cleavage turned out to be 0.09. GGCAGACCUCAACACAGCGUGGCAAAGUGGGUGUGGCUAGACUGCC: the self-cleavage was 0.06. Regarding GGCAGAUCUCAACACAGCGUGGCAUAGUGGCUGUGGCUAGACUGCC, the self-cleavage stood at 0.1.

Regarding GGCAGAUCUCAACACAGCGUGGCACAGUGGCUGUGGCUAGACUGCC, the self-cleavage came out at 0.06.

For GGCAGAUCUCAACACAGCGUGGCAGAGUGGCUGUGGCUAGACUGCC, the self-cleavage amounted to 0.1. GGCAGAUCUCAACACCGCGUGGCAAAGUGGCUGUGGCUAGACUGCC: the self-cleavage came out at 0.09. As for GGCAGAUCUCAACACUGCGUGGCAAAGUGGCUGUGGCUAGACUGCC, the figure is 0.12; as for GGCAGAUCUCAACACGGCGUGGCAAAGUGGCUGUGGCUAGACUGCC, 0.16.

For GGCAGACCUCAACACAGCGUGGCAAAGUGGCUGUGGCCAGACUGCC, the self-cleavage amounted to 0.1. For the variant GGCAGACCUCAACACAGCGUGGCAAAGUGGCUGUGGCGAGACUGCC, the self-cleavage stood at 0.02.

GGCAGACCUCAACACAGCGUGGCAAAGUGGCUGUGGCAAGACUGCC: the self-cleavage was determined as 0.07. As for GGCAGAUCUCACCACAGCGUGGCAAAGUGGCUGUGGCUAGACUGCC, the figure is 0.02. With GGCAGAUCUCAUCACAGCGUGGCAAAGUGGCUGUGGCUAGACUGCC the figure was 0.07; with GGCAGAUCUCAGCACAGCGUGGCAAAGUGGCUGUGGCUAGACUGCC, 0.04; with GGCAGACCUCAACACAGCGUGGCAAAGUGGCUGUGGCUAGAGUGCC, 0.1. As for GGCAGACCUCAACACAGCGUGGCAAAGUGGCUGUGGCUAGAAUGCC, the figure is 0.08. Turning to GGCAGACCUCAACACAGCGUGGCAAAGUGGCUGUGGCUAGAUUGCC, the self-cleavage was determined as 0.09. With GGCAGACCUCAACACAGCGUGGCAAAUUGGCUGUGGCUAGACUGCC the figure was 0.11. As for GGCAGACCUCAACACAGCGUGGCAAAAUGGCUGUGGCUAGACUGCC, the figure is 0.09; as for GGCAGACCUCAACACAGCGUGGCAAACUGGCUGUGGCUAGACUGCC, 0.06; as for GGCAGACCUCAACACAGCGUGGCAAAGCGGCUGUGGCUAGACUGCC, 0.1. Take GGCAGACCUCAACACAGCGUGGCAAAGGGGCUGUGGCUAGACUGCC: the self-cleavage is 0.08. GGCAGACCUCAACACAGCGUGGCAAAGAGGCUGUGGCUAGACUGCC: the self-cleavage was determined as 0.18. With GGCAGACCUCAACACAGCGUGGCAAAGUGGCUGUGGAUAGACUGCC the figure was 0.09; with GGCAGACCUCAACACAGCGUGGCAAAGUGGCUGUGGUUAGACUGCC, 0.13; with GGCAGACCUCAACACAGCGUGGCAAAGUGGCUGUGGGUAGACUGCC, 0.03.

With GGCAGACCUCAACACAGCGCGGCAAAGUGGCUGUGGCUAGACUGCC, the self-cleavage stood at 0.15. GGCAGACCUCAACACAGCGAGGCAAAGUGGCUGUGGCUAGACUGCC: the self-cleavage was 0.06. With GGCAGACCUCAACACAGCGGGGCAAAGUGGCUGUGGCUAGACUGCC the figure was 0.12.

Consider GGCAGACCUCAACAAAGCGUGGCAAAGUGGCUGUGGCUAGACUGCC, for which the self-cleavage came to 0.14. With GGCAGACCUCAACAGAGCGUGGCAAAGUGGCUGUGGCUAGACUGCC the figure was 0.08. As for GGCAGACCUCAACAUAGCGUGGCAAAGUGGCUGUGGCUAGACUGCC, the figure is 0.14; as for GGCAGACCUCAACACAGCGUGGCAAAGUGGCUGUGGCUAUACUGCC, 0.26. For the variant GGCAGACCUCAACACAGCGUGGCAAAGUGGCUGUGGCUACACUGCC, the self-cleavage came out at 0.05. Take GGCAGACCUCAACACAGCGUGGCAAAGUGGCUGUGGCUAAACUGCC: the self-cleavage came to 0.13. On to GGCAGAUCUCAACACAGCGUGGCGAAGUGGCUGUGGCUAGACUGCC, for which the self-cleavage came out at 0.06. For GGCAGAUCUCAACACAGCGUGGCUAAGUGGCUGUGGCUAGACUGCC, the self-cleavage was found to be 0.07.

Take GGCAGAUCUCAACACAGCGUGGCCAAGUGGCUGUGGCUAGACUGCC: the self-cleavage was determined as 0.06. For the variant GGCAGACCUCAACACAGCGUGGAAAAGUGGCUGUGGCUAGACUGCC, the self-cleavage was 0.09. With GGCAGACCUCAACACAGCGUGGGAAAGUGGCUGUGGCUAGACUGCC the figure was 0.1; with GGCAGACCUCAACACAGCGUGGUAAAGUGGCUGUGGCUAGACUGCC, 0.1; with GGCAGACCUCAACACAGCGUGGCAAAGUGCCUGUGGCUAGACUGCC, 0.13. As for GGCAGACCUCAACACAGCGUGGCAAAGUGACUGUGGCUAGACUGCC, the figure is 0.13; as for GGCAGACCUCAACACAGCGUGGCAAAGUGUCUGUGGCUAGACUGCC, 0.1; as for GGCAGACCGCAACACAGCGUGGCAAAGUGGCUGUGGCUAGACUGCC, 0.28. With GGCAGACCACAACACAGCGUGGCAAAGUGGCUGUGGCUAGACUGCC the figure was 0.09.

Turning to GGCAGACCCCAACACAGCGUGGCAAAGUGGCUGUGGCUAGACUGCC, the self-cleavage is 0.03.

For the variant GGCAGAUCUCAACACAGCGUGGCAAAGUGGCUGUGGCUAGACUGCC, the self-cleavage stood at 0.1.

On to GGCAGACCUCAACACAGCGUGGCAAAGUGGCUGUGGCUAGACAGCC, for which the self-cleavage was determined as 0.15. Regarding GGCAGACCUCAACACAGCGUGGCAAAGUGGCUGUGGCUAGACCGCC, the self-cleavage was 0.33.

In the case of GGCAGACCUCAACACAGCGUGGCAAAGUGGCUGUGGCUAGACGGCC, the self-cleavage stood at 0.05. Turning to GGCAGACCUCAACACAGCGUGGCAAAGUUGCUGUGGCUAGACUGCC, the self-cleavage worked out at 0.13. As to GGCAGACCUCAACACAGCGUGGCAAAGUCGCUGUGGCUAGACUGCC, the self-cleavage amounted to 0.05. With GGCAGACCUCAACACAGCGUGGCAAAGUAGCUGUGGCUAGACUGCC the figure was 0.13. On to GGCAGACAUCAACACAGCGUGGCAAAGUGGCUGUGGCUAGACUGCC, for which the self-cleavage is 0.32.

On to GGCAGACGUCAACACAGCGUGGCAAAGUGGCUGUGGCUAGACUGCC, for which the self-cleavage came to 0.29. For the variant GGCAGACUUCAACACAGCGUGGCAAAGUGGCUGUGGCUAGACUGCC, the self-cleavage turned out to be 0.2.

Consider GGCAGACCUCAACACAGCGUGGCAAAGUGGCUGAGGCUAGACUGCC, for which the self-cleavage was 0.05. On to GGCAGACCUCAACACAGCGUGGCAAAGUGGCUGGGGCUAGACUGCC, for which the self-cleavage came to 0.02. For the variant GGCAGACCUCAACACAGCGUGGCAAAGUGGCUGCGGCUAGACUGCC, the self-cleavage is 0.06. As for GGCAGACCUCAACACAGCGUGGCAAAGUGGCUGUAGCUAGACUGCC, the self-cleavage was determined as 0.08. Consider GGCAGACCUCAACACAGCGUGGCAAAGUGGCUGUCGCUAGACUGCC, for which the self-cleavage was found to be 0.06. Turning to GGCAGACCUCAACACAGCGUGGCAAAGUGGCUGUUGCUAGACUGCC, the self-cleavage stood at 0.18. As for GGCAGACCUAAACACAGCGUGGCAAAGUGGCUGUGGCUAGACUGCC, the figure is 0.04; as for GGCAGACCUGAACACAGCGUGGCAAAGUGGCUGUGGCUAGACUGCC, 0.03.

Consider GGCAGACCUUAACACAGCGUGGCAAAGUGGCUGUGGCUAGACUGCC, for which the self-cleavage stood at 0.04.

For the variant GGCAGACCUCAACACAGCGUGGCAAAGUGGCUGUGGCUAGUCUGCC, the self-cleavage was found to be 0.21. Consider GGCAGACCUCAACACAGCGUAGCAAAGUGGCUGUGGCUAGACUGCC, for which the self-cleavage turned out to be 0.2. Turning to GGCAGACCUCAACACAGCGUCGCAAAGUGGCUGUGGCUAGACUGCC, the self-cleavage worked out at 0.08. With GGCAGACCUCAACACAGCGUUGCAAAGUGGCUGUGGCUAGACUGCC, the self-cleavage was 0.08. With GGCAGACCUCAACACAGCGUGGCAAAGUGGCUCUGGCUAGACUGCC the figure was 0.08. With GGCAGACCUCAACACAGCGUGGCAAAGUGGCUUUGGCUAGACUGCC the figure was 0.07; with GGCAGACCUCAACACAGCGUGGCAAAGUGGCUAUGGCUAGACUGCC, 0.06. On to GGCAGACCUCAACACAGCGUGGCAAAGUGGCUGUGGCUAGACUCCC, for which the self-cleavage was found to be 0.18. For GGCAGACCUCAACACAGCGUGGCAAAGUGGCUGUGGCUAGACUUCC, the self-cleavage was found to be 0.15. As to GGCAGACCUCAACACAGCGUGGCAAAGUGGCUGUGGCUAGACUACC, the self-cleavage turned out to be 0.09. With GGCAGAUCUCAACGCAGCGUGGCAAAGUGGCUGUGGCUAGACUGCC the figure was 0.15; with GGCAGAUCUCAACUCAGCGUGGCAAAGUGGCUGUGGCUAGACUGCC, 0.11; with GGCAGAUCUCAACCCAGCGUGGCAAAGUGGCUGUGGCUAGACUGCC, 0.09.

(Values after the RNAGym collection of RNA variant scans (doi:10.7554/elife.90254).)
